Laboratory results from the supplement of paper PMC9112550, “Optimization of the antimicrobial peptide Bac7 by deep mutational scanning” (BMC Biology, 2022).

Tested on: Escherichia coli TOP10
Assay: shrunken log2 fold change of peptide-encoding DNA abundance (4.5 h post-induction vs induction); higher = less antimicrobial activity (less host growth inhibition)
Conditions: time post-induction: 4.5 h; library: site-saturation at positions 5, 18, 19, 20
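Further: peptides expressed intracellularly from a pBAD plasmid library in pooled LB shake-flask culture, induced with 0.3% L-arabinose, DNA abundance read by NGS, three biological replicates, DESeq2 with apeglm shrinkage.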

Row | Sequence | shrunken log2 fold change
1 | RRIRKRPPRLPRPRPRPFQRPRP | -0.0265
2 | RRIRQRPPRLPRPRPRPRKAPRP | -0.0029
3 | RRIRKRPPRLPRPRPRPVHEPRP | 0.325
4 | RRIRIRPPRLPRPRPRPSEPPRP | -0.192
5 | RRIRQRPPRLPRPRPRPVQIPRP | 0.0268
6 | RRIRPRPPRLPRPRPRPFWRPRP | 0.0788
7 | RRIRKRPPRLPRPRPRPAPCPRP | 0.432
8 | RRIRYRPPRLPRPRPRPPEQPRP | 0.357
9 | RRIRDRPPRLPRPRPRPNTTPRP | -0.0542
10 | RRIRSRPPRLPRPRPRPGGYPRP | 2.83
11 | RRIRGRPPRLPRPRPRPHWAPRP | 0.362
12 | RRIRIRPPRLPRPRPRPSICPRP | -0.814
13 | RRIRERPPRLPRPRPRPHYEPRP | -0.231
14 | RRIRRRPPRLPRPRPRPDLPPRP | 0.0159
15 | RRIRTRPPRLPRPRPRPMCGPRP | -0.171
16 | RRIRERPPRLPRPRPRPSNLPRP | -0.302
17 | RRIRQRPPRLPRPRPRPGWEPRP | -0.00991
18 | RRIRHRPPRLPRPRPRPLLCPRP | -0.223
19 | RRIRMRPPRLPRPRPRPFGCPRP | 0.254
20 | RRIRARPPRLPRPRPRPQCPPRP | 0.108
21 | RRIRARPPRLPRPRPRPCTTPRP | 0.184
22 | RRIRPRPPRLPRPRPRPYWQPRP | 0.0184
23 | RRIRFRPPRLPRPRPRPNCTPRP | 0.0099

Row | Sequence | shrunken log2 fold change
24 | RRIRYRPPRLPRPRPRPWKRPRP | 0.047
25 | RRIRYRPPRLPRPRPRPLDCPRP | -0.068
26 | RRIRFRPPRLPRPRPRPGTYPRP | -0.851
27 | RRIRERPPRLPRPRPRPKKWPRP | 2.71
28 | RRIRCRPPRLPRPRPRPYSAPRP | -0.752
29 | RRIRNRPPRLPRPRPRPHPFPRP | -0.0852
30 | RRIRIRPPRLPRPRPRPNSIPRP | -0.366
31 | RRIRQRPPRLPRPRPRPMKWPRP | 0.273
32 | RRIRDRPPRLPRPRPRPPHCPRP | 0.0674
33 | RRIRARPPRLPRPRPRPVWWPRP | 0.987
34 | RRIRCRPPRLPRPRPRPEKKPRP | 0.0741
35 | RRIRLRPPRLPRPRPRPRNGPRP | -0.0949
36 | RRIRVRPPRLPRPRPRPHCIPRP | -0.551
37 | RRIRRRPPRLPRPRPRPNKRPRP | -0.0621
38 | RRIRGRPPRLPRPRPRPWVNPRP | 0.0175
39 | RRIRDRPPRLPRPRPRPTGGPRP | 0.166
40 | RRIRDRPPRLPRPRPRPCKSPRP | -0.321
41 | RRIRPRPPRLPRPRPRPARYPRP | 0.19
42 | RRIRHRPPRLPRPRPRPEICPRP | -0.00961
43 | RRIRLRPPRLPRPRPRPAGVPRP | 0.103
44 | RRIRERPPRLPRPRPRPHSVPRP | -0.00145
45 | RRIRRRPPRLPRPRPRPETYPRP | 0.0872
46 | RRIRNRPPRLPRPRPRPIPPPRP | -0.0301

Row | Sequence | shrunken log2 fold change
47 | RRIRHRPPRLPRPRPRPNCMPRP | -0.0153
48 | RRIRGRPPRLPRPRPRPGMKPRP | 0.484
49 | RRIRERPPRLPRPRPRPCWMPRP | -0.239
50 | RRIRPRPPRLPRPRPRPDGCPRP | -0.228
51 | RRIRVRPPRLPRPRPRPCHYPRP | -0.0563
52 | RRIRERPPRLPRPRPRPEQSPRP | -0.0108
53 | RRIRTRPPRLPRPRPRPKLMPRP | -0.102
54 | RRIRERPPRLPRPRPRPMRTPRP | 0.0487
55 | RRIRERPPRLPRPRPRPRKLPRP | -0.0356
56 | RRIRMRPPRLPRPRPRPILFPRP | -0.385
57 | RRIRDRPPRLPRPRPRPEGFPRP | 0.638
58 | RRIRVRPPRLPRPRPRPTSYPRP | -0.45
59 | RRIRKRPPRLPRPRPRPEGNPRP | 2.03
60 | RRIRGRPPRLPRPRPRPWQTPRP | 0.174
61 | RRIRRRPPRLPRPRPRPAHHPRP | 0.332
62 | RRIRNRPPRLPRPRPRPYQAPRP | 0.036
63 | RRIRNRPPRLPRPRPRPIPGPRP | -0.0332
64 | RRIRSRPPRLPRPRPRPWESPRP | 0.0145
65 | RRIRCRPPRLPRPRPRPTSEPRP | 0.108
66 | RRIRYRPPRLPRPRPRPHSAPRP | -0.121
67 | RRIRLRPPRLPRPRPRPWGVPRP | 0.0612
68 | RRIRLRPPRLPRPRPRPCWMPRP | -0.168
69 | RRIRIRPPRLPRPRPRPQFQPRP | -0.166

Row | Sequence | shrunken log2 fold change
70 | RRIRQRPPRLPRPRPRPYRFPRP | 0.0797
71 | RRIRARPPRLPRPRPRPKTHPRP | 0.227
72 | RRIRMRPPRLPRPRPRPYIPPRP | -1.28
73 | RRIRVRPPRLPRPRPRPYYDPRP | -0.429
74 | RRIRRRPPRLPRPRPRPICLPRP | 0.12
75 | RRIRMRPPRLPRPRPRPPHRPRP | 0.567
76 | RRIRPRPPRLPRPRPRPYIYPRP | -0.518
77 | RRIRNRPPRLPRPRPRPWAVPRP | 0.0374
78 | RRIRCRPPRLPRPRPRPDVIPRP | -0.405
79 | RRIRKRPPRLPRPRPRPPWRPRP | 0.734
80 | RRIRDRPPRLPRPRPRPRNNPRP | -0.196
81 | RRIRSRPPRLPRPRPRPSHRPRP | -0.41
82 | RRIRYRPPRLPRPRPRPPYAPRP | -0.265
83 | RRIRIRPPRLPRPRPRPSEDPRP | -0.212
84 | RRIRYRPPRLPRPRPRPYMRPRP | -1.01
85 | RRIRRRPPRLPRPRPRPEEGPRP | 0.00715
86 | RRIRCRPPRLPRPRPRPVNHPRP | -0.444
87 | RRIRQRPPRLPRPRPRPLFWPRP | -0.23
88 | RRIRIRPPRLPRPRPRPISSPRP | -0.16
89 | RRIRRRPPRLPRPRPRPKWGPRP | 1.2
90 | RRIRGRPPRLPRPRPRPYLSPRP | -0.0512
91 | RRIRKRPPRLPRPRPRPDSYPRP | -0.00206
